According to PMC4728560, “TCTP contains a BH3-like domain, which instead of inhibiting, activates Bcl-xL” (Scientific Reports, 2016):

Biological target: T1, Bcl-xL, recombinant protein (human, UniProt Q07817-1 1-233)
T1 construct: Bcl-xL, human; also called wild type Bcl-xL; source: purified recombinant protein; host and details in Supplementary Information
Assay: ITC; peptide titrated into Bcl-xL in the cell; 30 °C, 50 mM ammonium bicarbonate pH 9; ITC200 calorimeter
Details: both partners purified

T1 sequence (Q07817 whole entry): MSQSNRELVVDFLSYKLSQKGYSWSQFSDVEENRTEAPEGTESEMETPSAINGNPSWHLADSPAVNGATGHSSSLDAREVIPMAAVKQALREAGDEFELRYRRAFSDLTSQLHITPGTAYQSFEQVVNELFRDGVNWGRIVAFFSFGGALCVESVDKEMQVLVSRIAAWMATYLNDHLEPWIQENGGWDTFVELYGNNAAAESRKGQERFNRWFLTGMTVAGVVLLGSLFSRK

B1: hybrid Bax/TCTP peptide (TCTP BH3 peptide containing the Bax h1 (P1) sub-region) (peptide)
chain: QPPQDASTKKLSECIREIADGLCLEV
Work on B1 yielded a Kd of 500 nM.
